Measured values published in patent US20220332804A1 (CSL INNOVATION, published 2022).

Columns and labels:
Test in all cases: SPR, KD relative to WT C2;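 further: biacore SPR at 37 °C, anti-C2 mAbs captured on anti-human IgG chips with alanine or serine point mutants of C2 as analyte, KD from 1:1 fit compared with wild-type C2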
human C2 E450A = target: T1, human C2 E450A (human, UniProt P06681 21-752)
T1 sequence: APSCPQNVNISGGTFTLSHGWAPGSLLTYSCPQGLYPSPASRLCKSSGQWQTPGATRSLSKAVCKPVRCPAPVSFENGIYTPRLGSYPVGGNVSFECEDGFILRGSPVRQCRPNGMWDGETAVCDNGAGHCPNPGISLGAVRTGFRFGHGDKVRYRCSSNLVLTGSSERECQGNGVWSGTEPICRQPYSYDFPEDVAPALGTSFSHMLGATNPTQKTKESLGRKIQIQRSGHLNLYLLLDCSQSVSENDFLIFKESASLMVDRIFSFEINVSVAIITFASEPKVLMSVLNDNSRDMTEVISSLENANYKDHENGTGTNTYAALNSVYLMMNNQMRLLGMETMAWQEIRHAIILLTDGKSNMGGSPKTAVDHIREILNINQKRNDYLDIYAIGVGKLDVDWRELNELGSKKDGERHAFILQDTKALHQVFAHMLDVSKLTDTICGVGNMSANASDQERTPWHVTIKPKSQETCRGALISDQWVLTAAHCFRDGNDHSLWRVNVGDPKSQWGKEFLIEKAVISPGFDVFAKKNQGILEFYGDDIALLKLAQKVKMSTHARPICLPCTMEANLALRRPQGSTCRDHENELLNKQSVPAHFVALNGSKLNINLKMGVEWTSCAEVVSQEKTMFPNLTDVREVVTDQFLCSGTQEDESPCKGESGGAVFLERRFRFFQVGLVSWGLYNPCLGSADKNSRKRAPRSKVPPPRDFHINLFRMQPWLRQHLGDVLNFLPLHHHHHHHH

human C2 T317A = target: T2, human C2 T317A (human, UniProt P06681 21-752)
T2 sequence: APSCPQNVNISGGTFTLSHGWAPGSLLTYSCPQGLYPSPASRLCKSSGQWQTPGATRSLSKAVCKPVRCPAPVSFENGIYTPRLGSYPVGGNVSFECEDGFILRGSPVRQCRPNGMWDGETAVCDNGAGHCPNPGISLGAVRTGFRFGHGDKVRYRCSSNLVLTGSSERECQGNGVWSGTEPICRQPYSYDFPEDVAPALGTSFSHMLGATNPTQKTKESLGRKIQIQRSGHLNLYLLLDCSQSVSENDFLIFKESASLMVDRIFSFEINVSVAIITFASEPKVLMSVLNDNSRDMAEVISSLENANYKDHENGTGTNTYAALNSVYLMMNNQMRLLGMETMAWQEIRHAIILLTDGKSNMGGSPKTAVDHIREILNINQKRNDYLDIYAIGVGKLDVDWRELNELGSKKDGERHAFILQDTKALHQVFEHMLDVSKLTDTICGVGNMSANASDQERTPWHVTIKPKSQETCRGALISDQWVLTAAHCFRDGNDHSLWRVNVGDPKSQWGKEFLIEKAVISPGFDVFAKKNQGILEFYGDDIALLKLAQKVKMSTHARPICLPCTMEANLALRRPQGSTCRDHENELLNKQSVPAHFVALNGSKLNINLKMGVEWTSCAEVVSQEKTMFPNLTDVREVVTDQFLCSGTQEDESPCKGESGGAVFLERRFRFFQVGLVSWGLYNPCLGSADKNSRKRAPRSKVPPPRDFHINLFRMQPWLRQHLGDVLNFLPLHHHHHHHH

human C2 N467A = target: T3, human C2 N467A (human, UniProt P06681 21-752)
T3 sequence: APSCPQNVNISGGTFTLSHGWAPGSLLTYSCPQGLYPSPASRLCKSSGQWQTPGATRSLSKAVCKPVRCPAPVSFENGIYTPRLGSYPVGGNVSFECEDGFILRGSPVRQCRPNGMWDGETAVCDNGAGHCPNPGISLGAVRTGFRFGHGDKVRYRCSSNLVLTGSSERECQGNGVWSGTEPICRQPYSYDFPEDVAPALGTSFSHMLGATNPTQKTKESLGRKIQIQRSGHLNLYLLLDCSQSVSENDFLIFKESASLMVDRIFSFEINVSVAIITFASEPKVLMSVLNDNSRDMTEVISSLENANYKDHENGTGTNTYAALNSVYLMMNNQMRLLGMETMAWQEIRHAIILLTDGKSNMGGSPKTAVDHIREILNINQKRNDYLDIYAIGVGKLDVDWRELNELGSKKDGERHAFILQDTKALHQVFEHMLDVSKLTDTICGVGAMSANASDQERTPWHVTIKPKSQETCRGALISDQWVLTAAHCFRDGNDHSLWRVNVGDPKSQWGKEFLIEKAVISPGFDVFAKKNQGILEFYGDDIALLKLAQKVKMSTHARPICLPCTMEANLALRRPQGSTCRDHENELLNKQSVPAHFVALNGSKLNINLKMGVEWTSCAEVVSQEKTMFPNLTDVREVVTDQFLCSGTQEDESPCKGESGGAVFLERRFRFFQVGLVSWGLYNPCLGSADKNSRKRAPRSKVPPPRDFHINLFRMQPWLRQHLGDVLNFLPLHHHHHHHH

human C2 A472S = target: T4, human C2 A472S (human, UniProt P06681 21-752)
T4 sequence: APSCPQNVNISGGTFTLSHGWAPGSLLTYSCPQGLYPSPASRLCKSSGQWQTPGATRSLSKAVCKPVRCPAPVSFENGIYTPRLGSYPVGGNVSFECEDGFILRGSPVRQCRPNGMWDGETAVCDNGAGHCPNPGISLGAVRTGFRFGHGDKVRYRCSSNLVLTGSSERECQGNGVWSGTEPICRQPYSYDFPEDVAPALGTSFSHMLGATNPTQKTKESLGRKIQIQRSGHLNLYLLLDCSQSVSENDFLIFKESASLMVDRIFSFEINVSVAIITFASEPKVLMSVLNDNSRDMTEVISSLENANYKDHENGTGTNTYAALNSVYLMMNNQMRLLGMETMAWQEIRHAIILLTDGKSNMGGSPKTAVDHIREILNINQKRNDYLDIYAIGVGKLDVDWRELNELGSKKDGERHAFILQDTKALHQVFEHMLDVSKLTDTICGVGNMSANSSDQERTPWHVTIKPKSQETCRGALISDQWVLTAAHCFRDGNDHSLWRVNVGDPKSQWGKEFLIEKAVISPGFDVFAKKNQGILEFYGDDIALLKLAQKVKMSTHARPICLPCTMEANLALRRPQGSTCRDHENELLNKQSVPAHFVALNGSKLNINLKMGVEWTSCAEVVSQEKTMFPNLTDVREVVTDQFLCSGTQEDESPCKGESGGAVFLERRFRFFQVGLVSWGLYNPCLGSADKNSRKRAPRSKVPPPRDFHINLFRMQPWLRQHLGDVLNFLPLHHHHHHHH

B1: RF16-242 (antibody, human IgG4 S228P, lambda, V domains shown)
VH: EVQLLQSGAEVKKPGESLKISCKGSGYSFTSYWIGWVRQMPGKGLEWMGIIYPGDSDTRYSPSFQGQVTISADKSISTAYLQWSSLKASDTAMYYCARRGHYGDYFDYWGQGTLVTVSS
VL: SYELTQPPSVSVSPGQTARITCSGDALPKKYAYWYHQKSGQAPVLVIYEDRRRPSEIPERFSGSSSGTMATLTITGAQVEDEGVYFCYSRDRAGNQRVFGGGTQLTVLG
notes: pH-dependent anti-C2 antibody from a phage display library
Fold diff (human C2 E450A): 3 fold | Fold diff (human C2 T317A): 1 fold | Fold diff (human C2 N467A): 2 fold | Fold diff (human C2 A472S): 7 fold
